Measured values reported in patent US20030158387.

Assays:
[1] = tested on: T1, full size human chemokine HCC-1 (residues 1-74)
T1 sequence: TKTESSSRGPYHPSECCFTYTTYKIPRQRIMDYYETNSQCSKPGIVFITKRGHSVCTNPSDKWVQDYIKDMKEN

[2] = tested on: processed human chemokine PHC-1 (HCC-1[9-74])

Row | Substance | proteolytic cleavage (tryptic digestion, enzyme/substrate-ratio (w/w) 1/100, one hour) [1] | proteolytic degradation (tryptic digestion with increased incubation time) [2] | activity of 50 nM PHC-1 after incubation with 10 or 100 IU purified urokinase [2]
1 | trypsin | the 74 residue peptide was in part cleaved into smaller fragments. One cleavage product, the newly identified biologically active peptide PHC-1 | trypsin generated PHC-1 then degrades PHC-1 into inactive fragments when the incubation time is increased | –
2 | urokinase (purified CHOAY urokinase, Sanofi Wintrop; uPA) | – | – | No change of activity was observed after an incubation of 90 min at 37 °C
